B1: p53.25-35 (peptide)
peptide: LLPENNVLSPL
notes: also called hu-wt-p53 25-35; hu-p53.25-35
B2: p53.65-73 (peptide)
peptide: RMPEAAPPV
notes: also called hu-wt-p53 65-73; hu-p53.65-73

Target: HLA-A2.1 (human, UniProt A*02:01)
Test: competition on EA2 cells: test peptide (100 mM [sic]) vs M1 58-66 (1 mM [sic]); % inhibition of CTL clone 12 lysis, E:T 0.3:1

Binder | % inhibition of A2.1-binding of M1 (58-66) [%]
AAPPVAPAPAA [hu-wt-p53 69-79] | 4
NTFRHSVVV [hu-wt-p53 210-218] | 43
QLAKTCPVQ [hu-wt-p53 136-144] | 15
DLMLSPDDI [hu-wt-p53 42-50] | 19
LLGRDSFEV (also called mur-p53.261-269) [mur-wt-p53 261-269] | 75
WVDSTPPPGT [hu-wt-p53 146-155] | 10
VAPAPAAPT [hu-wt-p53 73-81] | 12
GLAPPQHLI [hu-wt-p53 187-195] | 62
GTAKSVTCT [hu-wt-p53 117-125] | 12
LMLSPDDIEQ [hu-wt-p53 43-52] | 25
VLSPLPSQA [hu-wt-p53 31-39] | 38
ITLEDSSGNL [hu-wt-p53 255-264] | 24
B1 | 65
LLPENNVLS [hu-wt-p53 25-33] | 42
NLLGRNSFEV [hu-wt-p53 263-272] | 50
AAPPVAPA [hu-wt-p53 69-76] | 46
EMFRELNEA [hu-wt-p53 339-247] | 12
VLSPLPSQAM [hu-wt-p53 31-40] | 23
AAPTPAAPA [hu-wt-p53 78-86] | 51
AAPPVAPAPA [hu-wt-p53 69-78] | 41
B2 | 62
AIYKQSQHM [hu-wt-p53 161-169] | 12
STPPPGTRV [p53.149-157] | 29
VTCTYSPAL [hu-wt-p53 122-130] | 12
RLGILHSGTA [hu-wt-p53 110-119] | 10
PLDGEYFTL (also called hu-p53.322-330) [hu-wt-p53 322-330] | 24

— patent US20030064916A1 (Scripps Research, published 2003)
